Results published in publication PMC5035049, “Solution Structure of the Cuz1 AN1 Zinc Finger Domain: An Exposed LDFLP Motif Defines a Subfamily of AN1 Proteins” (PLoS ONE, 2016).
Numbering of substitutions follows the chain as printed.

Molecular target: T1, 12xHis-SUMO-Cdc48 (S. cerevisiae, UniProt P25694 1-835)
T1 construct: Cdc48, multifunctional ATPase, S. cerevisiae, full length; also called 12xHis-Sumo-tagged Cdc48; p97 in higher organisms
Test: pull-down; GST-tagged Cuz1 species added to 12xHis-Sumo-tagged Cdc48 or to beads alone; bound Cuz1 seen by SDS-PAGE and anti-Cuz1 immunoblot; as previously described in ref. 7
Details: both partners purified

T1 sequence (P25694 whole entry): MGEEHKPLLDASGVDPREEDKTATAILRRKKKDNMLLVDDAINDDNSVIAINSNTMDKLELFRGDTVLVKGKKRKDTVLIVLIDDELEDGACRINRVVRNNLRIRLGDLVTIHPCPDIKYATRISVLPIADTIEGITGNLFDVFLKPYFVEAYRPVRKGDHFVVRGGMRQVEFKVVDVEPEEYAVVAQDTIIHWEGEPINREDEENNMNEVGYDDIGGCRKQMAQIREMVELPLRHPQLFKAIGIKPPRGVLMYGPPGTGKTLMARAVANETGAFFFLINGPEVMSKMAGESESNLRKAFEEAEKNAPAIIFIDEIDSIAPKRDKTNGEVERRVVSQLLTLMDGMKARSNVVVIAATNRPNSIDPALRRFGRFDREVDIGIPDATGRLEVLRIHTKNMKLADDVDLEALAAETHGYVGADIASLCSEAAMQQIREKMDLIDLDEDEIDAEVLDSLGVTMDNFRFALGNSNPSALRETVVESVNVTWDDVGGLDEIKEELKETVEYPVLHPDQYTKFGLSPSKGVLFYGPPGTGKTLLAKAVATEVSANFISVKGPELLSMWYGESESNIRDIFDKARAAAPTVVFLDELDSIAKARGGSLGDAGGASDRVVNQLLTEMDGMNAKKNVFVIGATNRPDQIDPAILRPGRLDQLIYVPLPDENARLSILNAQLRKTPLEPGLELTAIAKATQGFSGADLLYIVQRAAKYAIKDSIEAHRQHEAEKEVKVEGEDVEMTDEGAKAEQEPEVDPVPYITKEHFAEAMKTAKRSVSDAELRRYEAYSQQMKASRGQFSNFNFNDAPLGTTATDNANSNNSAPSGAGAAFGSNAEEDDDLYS

B1: GST-Cuz1, full length wild type (plasmid pJH150) (natural protein, S. cerevisiae, UniProt P53899 1-274, looked up)
chain: MSAAIEKETGMLDVGKHCAYCRQLDFLPFHCSFCNEDFCSNHRLKEDHHCRWLLEHEEVHKTEKSPSKSRDGSSSNDEAYFKSLLPERASVRIQRVSETREPLRGSNTAKVSSTLNSKTLDKIFKFFQRNEKRKSNNKSKKNFGSSSNKIIQLANLKKIAKGDPKIPMQNRIYIWCYLVDGDETDIAKEDTRMPLYINKMWPVGRAMDYLSIQLNVKSSTLTNSSSNDKFQLCKLKEGKQVSFYNIGASLRVTNEIKDLDTLYLVHNNADEKSN
notes: Cuz1 (systematic name Ynl155w), S. cerevisiae, 274 amino acids, full length; also called Ynl155w; GST-tagged Cuz1
binding result: binds

B2: GST-Cuz1 LDFL→AAAA, full length (plasmid pJH171) (natural protein, S. cerevisiae, UniProt P53899 1-274, looked up)
chain: B1 chain with L24A, D25A, F26A, L27A
notes: Cuz1 (systematic name Ynl155w), S. cerevisiae, 274 amino acids, full length, with LDFL (L24, D25, F26, L27) changed to AAAA; Made by site-directed mutagenesis of pJH150; also called Cuz1^LDFL→AAAA mutant; Cuz1 LDFL mutant
binding result: binds
